Counter-ions that a name gives are not always drawn.

A short description of one data set: in vivo. The settings on record: female, CD-1 nude, mouse.
Data set [1] in a line: Biodistribution studies (tissue extraction, fluorescence). Type of data set: in vivo, CD-1 nude female mice. As for the experimental part: Anaesthetized mice were i.v. injected with 15 mg/kg STL-6014 (n = 27) or 9 mg/kg STL-7012 (n = 15). At each indicated time point, three animals were sacrificed and blood, kidney, liver and tumor tissues were collected into pre-weighed vials and frozen at -20°C. Tissue samples were homogenized in methanol (100 mg tissue/ml) and extracted the next morning by centrifugation (13,000 × g five minutes) at room temperature. Supernatants were diluted in methanol by a factor of two and drug concentration was determined by fluorescence measurements (Varian - Cary Eclipse spectrofluorimeter, Palo Alto, California, USA) at 750 nm (peak values). Drug concentrations were interpolated from a fluorescence calibration curve, based on predetermined drug concentrations using absorption spectroscopy.

Data set [2] deals with MDA-MB-231-RFP tumors. Nature of the data set: In vivo competition between STL-6014 and free c(RGDfK). Also noted: species or system CD-1 nude female mice. As for the experimental part:
STL-6014 (140 nmol, 7.5 mg/kg) was i.v. injected to the tail vein of mice one hour after being pre-injected with an excess (8.5 μmol) of c(RGDfK) free peptide. Whole-body fluorescence images were recorded up to 24 hours post-STL-6014 injection (IVIS®, Xenogen Corp., Alameda, CA, USA) with the respective filter settings, described above.

Data set [3] deals with large MDA-MB-231-RFP tumors. Nature of the data set: Fluorescence imaging of dissected tumors (spatial distribution). The settings on record: 15 mg/kg i.v. Type of data set: in vivo, CD-1 nude female mice.
Data set [4] deals with MDA-MB-231-RFP tumors. The settings on record: mouse, in vivo.
Description: (§1) Mammary fat pads (left, bottom nipple) of female mice were inoculated with harvested MDA-MB-231-RFP human breast cancer cells (4 × 10^6 in 100 μl saline). Tumors were classified as 'small' (≤100 mm^3) at one to two weeks from time of cell injection, or 'large' after three to four weeks (necrotic tumors, 250 to 500 mm^3). To avoid tumor burden, mice were sacrificed (cervical dislocation) when tumor size reached 10% of body weight or at 90 days post-implantation. External caliper measurements, length (L), width (W) and depth (D) were used to calculate in vivo tumor volume according to the formula: V = L/2 · W/2 · D/2 · π · 4/3 [46].
(§2) The in Vivo Optical Imaging System (IVIS®100/XFO-12, Xenogen Corp., Alameda, CA, USA) was used to acquire fluorescent images of the RFP-expressing tumors, as well as Bchl-D compounds associated with tissues and organs after their intravenous (i.v.) infusion to the tested animals. The field of view was 15 cm. RFP fluorescence, in units of photons/sec, was detected using 525/50 nm and 612/75 nm filter sets for excitation and emission, respectively, with one second integration time. NIR fluorescence of the different Bchl-Ds, in units of photons/sec, was detected using 680/30 nm and 847/75 nm filter sets for excitation and emission, respectively, at an integration time of five seconds. Background fluorescence for all quantitative analyses was calculated by recording the average fluorescence (photons/sec)/cm^2 from three animals in three different areas around and within the tumor of untreated animals provided with a similar diet for three days before measurements.
(§3) Drug accumulation was determined following i.v. administration of molar equivalents of the Bchl-D moiety to the tail vein of mice fed with a chlorophyll-free, purified diet (Harlan Teklad, Harlan Laboratories, Indianapolis, IN, USA) for three days before administration (in order to reduce skin and food autofluorescence). Before imaging, mice were anesthetized by intraperitoneum injection of a 30 μl mixture of 85:15 ketamine:xylazine.
(§4) Xenogen Living Image Software (Xenogen Corp., Alameda, CA, USA) was used for sequential fluorescent image acquisition [see Additional file 1] and superimposition of photographic images of mice and color-coded fluorescent images.
In a further data set the target is HSA (Homo sapiens, UniProt P02768). Nature of the data set: Association constants of Bchl-Ds to HSA (spectroscopic titration). The settings on record: for HSA association constant Ka(HSA): 1:1 non-covalent complex with HSA. Type of data set: binding. The text has this: Association constants of Bchl-Ds to HSA were deduced from spectroscopic measurements of the ratio between Bchl-Ds and HSA for different concentrations of HSA using both factor analysis, as previously described and by monitoring changes in the near infrared (NIR) absorption of the Bchl-Ds during titration with HSA. Briefly, all four Bchl-Ds present broad NIR absorption with reduced intensity in SA-free aqueous solutions. Upon addition of SA, they form 1:1 complexes with the added protein ((Bchl-D)/SA) with strong and narrow NIR absorption bands. The narrow-band absorption is proportional to the ((Bchl-D)/SA) concentration enabling calculation of the association constant Ka through the following equation: [drawing 1]
Chain of HSA (P02768 25-609): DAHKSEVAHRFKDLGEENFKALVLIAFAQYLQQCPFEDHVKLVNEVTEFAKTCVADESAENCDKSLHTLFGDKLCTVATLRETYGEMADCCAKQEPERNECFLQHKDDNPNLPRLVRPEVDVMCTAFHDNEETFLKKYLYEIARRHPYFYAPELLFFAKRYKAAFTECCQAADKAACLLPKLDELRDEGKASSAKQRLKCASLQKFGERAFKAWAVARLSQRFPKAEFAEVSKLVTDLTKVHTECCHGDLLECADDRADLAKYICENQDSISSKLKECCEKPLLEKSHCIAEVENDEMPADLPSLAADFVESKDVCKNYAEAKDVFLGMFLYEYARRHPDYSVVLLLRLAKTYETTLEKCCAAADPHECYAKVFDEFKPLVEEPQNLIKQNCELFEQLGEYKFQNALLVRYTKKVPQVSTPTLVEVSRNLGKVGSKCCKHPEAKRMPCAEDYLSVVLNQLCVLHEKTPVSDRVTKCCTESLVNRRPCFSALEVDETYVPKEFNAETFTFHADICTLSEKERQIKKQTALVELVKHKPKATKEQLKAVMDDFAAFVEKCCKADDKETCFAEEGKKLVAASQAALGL
Where [SA]0 is the analytical concentration of the added SA and [(Bchl-D/SA)] is the concentration of the Bchl-D complex with SA calculated from the spectral changes.

The test system of data set [5] is MDA-MB-231-RFP tumors. Nature of the data set: Whole-body fluorescence imaging of drug accumulation and clearance in tumors. The settings on record: large necrotic tumors, 9 mg/kg i.v., from one hour post injection.
Description: as §1, §2, §3, §4
The next data set relates to primary xenografts. The settings on record: circulates as non-covalent complex with SA; cited from earlier work.
On the set-up of data set [6]: method as in PMID 11216533. The settings on record: cited from earlier work.
For another data set, the system named is αVβ3 integrin receptors. On the set-up: method as in PMID 16309948. The settings on record: cited from earlier work.
Setting [7] is: 48 to 72 hours post-administration.

Consider `CC[C@H]1c2cc3[nH]c(c(CC(=O)OC)c4nc(cc5[nH]c(cc(n2)[C@@H]1C)c(C(C)=O)c5C)[C@@H](C)[C@@H]4CCC(=O)NCCCC[C@@H]1NC(=O)[C@@H](Cc2ccccc2)NC(=O)[C@H](CC(=O)O)NC(=O)CNC(=O)[C@H](CCCNC(=N)N)NC1=O)c(C(=O)NCCS(=O)(=O)O)c3C` [STL-6014, 3^1-oxo-15-methoxycarbonylmethyl-Rhodobacteriochlorin 13^1-(2-sulfoethyl)amide-17^3-c(RGDfK)amide potassium salt], for which the Tmax – broadly, the time at which the peak concentration occurs – in “in vivo” lay within 48 to 72 h. The half-life (as a rule, the time needed for the level to fall by half in the phase considered) in the data set “in vivo” (iv, 15 mg/kg, t1/2 of tumor fluorescence, mono-exponential decay) was 14 ± 1.5 h. In addition, in data set [1] (15 mg/kg i.v.), the “t1/2 of hepatic clearance” value is recorded as “about four” and the “time to clear to nearly background levels in normal tissues” value is recorded as “less than 72 hours”. Also, in data set [1] (setting [7]), the “tumor level relative to blood” value is reported as “about two orders of magnitude”; the “tumor level relative to kidney, liver, intestines, lung and skin” value is recorded as “about two”. In addition, the “tumor level relative to spleen, heart, brain, fat and muscle” value in data set [1] (48 to 72 hours post-administration, data not shown) is “about 10 fold”. The “time of peak levels in normal tissues post-injection” value in data set [1] (blood, liver, kidney, 15 mg/kg i.v.) is “less than five”. Also, in [1] (large tumors, 15 mg/kg i.v.), the “time of peak concentration in tumors post-injection” value is given as “eight”. Further, the “peak concentration in tumors” value in data set [1] (large tumors, 15 mg/kg i.v., eight hours post-injection) came to 11 μg drug/gr tumor tissue. Also, the “peak tumor level as share of the initial drug dose” value in [1] (large tumors, eight hours post-injection) is listed as “about 3.0%”. Also, the “STL-6014 uptake and accumulation after pre-administration of free c(RGDfK)” value with MDA-MB-231-RFP tumors [2] (large tumors, data not shown) was “not affected”. Moreover, the “STL-6014 tumor fluorescence after pre-injection of free c(RGDfK)” value with MDA-MB-231-RFP tumors [2] (small tumors, 7.5 mg/kg (140 nmol) i.v. one hour after 61-fold molar excess c(RGDfK)) is on record as “almost no STL-6014 fluorescence was detected in the tumor”. Also, the “location of fluorescence signal in dissected tumor” value in data set [3] (beyond 16 hours post-injection) is given as “only observed in the necrotic domain”. The “location of fluorescence signal in dissected tumor” value in [3] (four hours post injection) is “within the viable tumor region alone”. Besides, in the data set on MDA-MB-231-RFP tumors [4], the “time to full clearance from tumor” value is listed as “less than two” and the “tumor half lifetime (T1/2)” value is “in the range of days”. In addition, in the data set on MDA-MB-231-RFP tumors [4] (iv, 15 mg/kg), the “clearance from small tumors relative to large tumors (faster)” value is on record as “more than 10 fold”; the “persistence of tumor fluorescence” value is on record as “still detectable at nine days”; the “t^1_1/2 of tumor fluorescence, bi-exponential decay” value was 12.0 ± 3.5 h; the “t^2_1/2 of tumor fluorescence, bi-exponential decay” value came to 210.0 ± 86.0 h. Further, in the data set on MDA-MB-231-RFP tumors [4] (iv, 15 mg/kg), the “time for tumor fluorescence to return to background values” is reported as ≤ 48 h and the “time of peak tumor fluorescence after administration” value is “six to eight”. Further, at HSA (as restated in discussion, read-out: Ka, association with SA (converted)), the Kd was 8.33 µM.

With `CC[C@H]1c2cc3[nH]c(c(CC(=O)OC)c4nc(cc5[nH]c(cc(n2)[C@@H]1C)c(C(C)=O)c5C)[C@@H](C)[C@@H]4CCC(=O)O)c(C(=O)NCCS(=O)(=O)[O-])c3C.[K+]` [STL-7012, 3^1-oxo-15-methoxycarbonylmethyl-Rhodobacteriochlorin 13^1-(2-sulfoethyl)amide dipotassium salt], in data set [1] (9 mg/kg i.v., any time longer than one hour post administration), the “accumulation in tumor, fluorescence of tissue extracts” value is given as “no STL-7012 accumulation in the tumor”. In the data set on MDA-MB-231-RFP tumors [5], the “tumor fluorescence in whole-body imaging” value is reported as “No specific tumor fluorescence”. Besides, the “HSA association constant Ka(HSA)” value at HSA came out at 0.44 ± 0.09 µM⁻¹.

Regarding `CC[C@H]1c2cc3[n-]c(c(CC(=O)OC)c4nc(cc5[n-]c(cc(n2)[C@@H]1C)c(C(C)=O)c5C)[C@@H](C)[C@@H]4CCC(=O)[O-])c(C(=O)NCCS(=O)(=O)[O-])c3C.[H+].[H+].[Pd+2]` [WST11], the “accumulation in the tumor tissue” value in the data set with primary xenografts is listed as “no accumulation in the tumor tissue”. In addition, the “HSA association constant Ka(HSA)” value at HSA stood at 0.54 ± 0.07 µM⁻¹.

Turning to Cyclo-Arg-Gly-Asp-D-Phe-Lys [c(RGDfK)], the “half life in a similar animal model” value in data set [6] is given as “minutes”. Further, the “Ka, association of c(RGDfK) moiety with αVβ3 integrin receptors” value in the data set on αVβ3 integrin receptors is given as “about 10^9 M^-1”.
